Assay results: US20190359666A1

Assays:
nrgECD = nrgECD (UniProt Q02297); experiment: Biacore SPR, immobilised nrgECD
nrgEGF = nrgEGF (UniProt Q02297); experiment: Biacore SPR
nrgbx = nrgbx (UniProt Q02297); experiment: cell-based or functional assay
Sequence of nrgbx (Q02297 other isoform, or with tags, fused parts or gaps limits assumed): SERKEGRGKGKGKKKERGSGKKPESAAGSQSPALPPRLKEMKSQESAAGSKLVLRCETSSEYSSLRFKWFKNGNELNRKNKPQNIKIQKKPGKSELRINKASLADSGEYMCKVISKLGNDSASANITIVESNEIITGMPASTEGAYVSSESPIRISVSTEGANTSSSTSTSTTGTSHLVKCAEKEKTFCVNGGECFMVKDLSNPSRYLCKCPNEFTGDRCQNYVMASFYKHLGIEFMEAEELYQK

Sequence of IGFBP3-Fc-ErbB4 (Fc fusion) (chain): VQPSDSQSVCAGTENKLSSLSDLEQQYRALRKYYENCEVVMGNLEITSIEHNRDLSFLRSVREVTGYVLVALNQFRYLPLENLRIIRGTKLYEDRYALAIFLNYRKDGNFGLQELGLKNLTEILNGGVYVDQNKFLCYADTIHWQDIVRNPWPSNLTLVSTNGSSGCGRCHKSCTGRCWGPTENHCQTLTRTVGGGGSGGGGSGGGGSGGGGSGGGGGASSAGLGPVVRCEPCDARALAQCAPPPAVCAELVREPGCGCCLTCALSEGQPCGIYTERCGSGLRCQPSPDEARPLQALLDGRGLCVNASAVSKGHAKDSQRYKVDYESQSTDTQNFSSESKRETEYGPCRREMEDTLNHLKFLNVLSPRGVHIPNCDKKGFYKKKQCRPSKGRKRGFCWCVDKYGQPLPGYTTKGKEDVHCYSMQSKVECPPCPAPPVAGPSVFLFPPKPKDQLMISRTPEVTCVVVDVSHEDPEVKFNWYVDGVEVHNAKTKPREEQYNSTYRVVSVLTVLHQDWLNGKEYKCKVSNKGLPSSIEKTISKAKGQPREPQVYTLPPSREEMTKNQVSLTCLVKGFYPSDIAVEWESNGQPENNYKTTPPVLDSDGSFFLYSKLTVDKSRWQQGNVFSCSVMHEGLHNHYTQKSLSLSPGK
Sequence of IGFBP3-Fc-VEGF-ErbB4 (Fc fusion) (chain): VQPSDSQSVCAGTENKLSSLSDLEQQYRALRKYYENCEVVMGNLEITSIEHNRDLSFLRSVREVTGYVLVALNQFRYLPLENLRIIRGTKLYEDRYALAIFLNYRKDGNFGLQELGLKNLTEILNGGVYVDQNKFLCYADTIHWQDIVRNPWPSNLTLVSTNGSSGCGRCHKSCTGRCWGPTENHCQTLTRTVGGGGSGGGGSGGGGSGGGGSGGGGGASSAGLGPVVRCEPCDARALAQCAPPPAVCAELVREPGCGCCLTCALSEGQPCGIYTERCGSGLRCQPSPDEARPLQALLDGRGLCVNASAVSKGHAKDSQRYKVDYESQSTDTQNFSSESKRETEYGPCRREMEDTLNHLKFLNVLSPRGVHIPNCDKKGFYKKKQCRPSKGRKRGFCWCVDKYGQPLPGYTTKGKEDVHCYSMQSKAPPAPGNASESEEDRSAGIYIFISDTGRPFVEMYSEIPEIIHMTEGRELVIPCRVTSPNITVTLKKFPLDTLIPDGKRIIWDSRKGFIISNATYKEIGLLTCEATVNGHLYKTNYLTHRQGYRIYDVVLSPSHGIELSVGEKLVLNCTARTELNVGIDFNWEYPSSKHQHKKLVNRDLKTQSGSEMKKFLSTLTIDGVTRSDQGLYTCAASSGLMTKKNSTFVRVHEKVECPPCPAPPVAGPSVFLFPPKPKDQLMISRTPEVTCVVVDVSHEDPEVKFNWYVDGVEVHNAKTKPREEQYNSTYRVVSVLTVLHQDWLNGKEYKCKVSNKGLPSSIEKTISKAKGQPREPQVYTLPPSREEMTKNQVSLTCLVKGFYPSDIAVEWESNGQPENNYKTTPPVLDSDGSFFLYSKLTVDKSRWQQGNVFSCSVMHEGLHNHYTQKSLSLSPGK
Sequence of IGFBP3-Fc-VEGF (Fc fusion) (chain): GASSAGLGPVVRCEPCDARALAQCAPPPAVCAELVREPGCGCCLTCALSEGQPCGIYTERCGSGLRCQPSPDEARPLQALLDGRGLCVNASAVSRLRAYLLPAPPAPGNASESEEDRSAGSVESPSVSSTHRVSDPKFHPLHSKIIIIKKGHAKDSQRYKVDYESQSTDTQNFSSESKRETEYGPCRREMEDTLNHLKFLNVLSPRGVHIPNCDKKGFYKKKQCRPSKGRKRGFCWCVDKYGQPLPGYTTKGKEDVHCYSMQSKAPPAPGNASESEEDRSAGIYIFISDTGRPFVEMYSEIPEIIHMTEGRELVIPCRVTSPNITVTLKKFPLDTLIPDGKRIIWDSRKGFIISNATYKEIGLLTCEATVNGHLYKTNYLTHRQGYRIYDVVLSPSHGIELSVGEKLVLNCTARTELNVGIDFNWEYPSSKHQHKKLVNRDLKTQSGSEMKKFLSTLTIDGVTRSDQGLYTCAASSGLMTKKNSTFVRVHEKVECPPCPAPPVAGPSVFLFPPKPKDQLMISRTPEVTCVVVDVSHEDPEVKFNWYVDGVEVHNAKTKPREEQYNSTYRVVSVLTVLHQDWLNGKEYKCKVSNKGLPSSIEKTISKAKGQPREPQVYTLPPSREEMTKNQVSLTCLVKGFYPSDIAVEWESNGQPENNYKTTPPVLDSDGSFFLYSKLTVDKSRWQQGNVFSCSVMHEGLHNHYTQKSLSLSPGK
Sequence of IGFBP3-Fc (Fc fusion) (chain): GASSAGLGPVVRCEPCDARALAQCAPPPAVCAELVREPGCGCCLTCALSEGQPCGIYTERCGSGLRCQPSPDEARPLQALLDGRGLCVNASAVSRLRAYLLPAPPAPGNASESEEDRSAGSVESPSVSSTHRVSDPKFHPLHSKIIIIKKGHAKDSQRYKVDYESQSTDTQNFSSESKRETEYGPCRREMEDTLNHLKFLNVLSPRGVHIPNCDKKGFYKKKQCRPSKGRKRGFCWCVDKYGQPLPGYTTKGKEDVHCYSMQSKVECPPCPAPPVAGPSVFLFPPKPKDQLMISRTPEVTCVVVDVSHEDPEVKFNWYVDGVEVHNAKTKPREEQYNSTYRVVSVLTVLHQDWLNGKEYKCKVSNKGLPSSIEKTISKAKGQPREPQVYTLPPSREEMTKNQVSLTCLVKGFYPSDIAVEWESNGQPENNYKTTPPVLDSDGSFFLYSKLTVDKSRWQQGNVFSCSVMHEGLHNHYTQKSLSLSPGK

| Substance | Kd (nrgECD) | Kd (nrgEGF) | IC50 in inhibiting neuregulin-induced proliferation (nrgbx) |
| --- | --- | --- | --- |
| IGFBP3-Fc (Fc fusion) | 5.3 nM | – | – |
| IGFBP3-Fc-VEGF (Fc fusion) | 0.18 nM | – | – |
| chimera erbB4-A (Fc fusion) | – | – | 14 nM |

Results, then the substance that gave them:

| Kd (nrgECD) | Kd (nrgEGF) | IC50 in inhibiting neuregulin-induced proliferation (nrgbx) | Substance |
| --- | --- | --- | --- |
| 0.004 nM | 6 nM | – | IGFBP3-Fc-ErbB4 (Fc fusion) |
| 0.00011 nM | 11 nM | – | IGFBP3-Fc-VEGF-ErbB4 (Fc fusion) |
